Test results: article PMC8170675, “Allostery through DNA drives phenotype switching”

How the values were obtained:
[1] = molecular target: T1, ComK (Bacillus subtilis, UniProt P40396); test: smFRET; conditions: amino-C6-dT/dA at dye sites, EMSA: 20 mM Tris pH 7.0, 50 mM L-Arg, 5 mM MgCl2, 150 mM KCl, 10 mM DTT, 0.001% Tween-20, 25 nM DNA, 20 min, smFRET: room temperature, 20 mM DTT
T1 sequence: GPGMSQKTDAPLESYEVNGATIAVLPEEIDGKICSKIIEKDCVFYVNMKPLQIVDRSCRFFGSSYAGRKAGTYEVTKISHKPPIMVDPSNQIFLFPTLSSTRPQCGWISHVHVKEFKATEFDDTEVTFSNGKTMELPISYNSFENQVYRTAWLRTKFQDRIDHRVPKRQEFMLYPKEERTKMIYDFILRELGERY

[2] = molecular target: T1, ComK; test: smFRET; Hill n 3.55 ± 0.12; unit not in visible table header, inferred from fit parameters; EMSA: 20 mM Tris pH 7.0, 50 mM L-Arg, 5 mM MgCl2, 150 mM KCl, 10 mM DTT, 0.001% Tween-20, 25 nM DNA, 20 min; smFRET: room temperature, 50 mM L-Arg, 20 mM DTT; conditions: protein: recombinant; tags: N-terminal His6-HRV3C tag removed; GPG remains at the N-terminus; chain copies: 4; label: AlexaFluor 488 / AlexaFluor 594; blunt
[3] = molecular target: T2, ΔCys ComK (Bacillus subtilis, UniProt P40396 1-192, C31A;C39A;C55A;C102A); test: smFRET; 30 pM DNA, 100 nM protein; EMSA: 20 mM Tris pH 7.0, 50 mM L-Arg, 5 mM MgCl2, 150 mM KCl, 10 mM DTT, 0.001% Tween-20, 25 nM DNA, 20 min; smFRET: room temperature, 50 mM L-Arg, 20 mM DTT; conditions: protein: recombinant; chain copies: 4; label: AlexaFluor 488 / AlexaFluor 594; blunt
T2 sequence: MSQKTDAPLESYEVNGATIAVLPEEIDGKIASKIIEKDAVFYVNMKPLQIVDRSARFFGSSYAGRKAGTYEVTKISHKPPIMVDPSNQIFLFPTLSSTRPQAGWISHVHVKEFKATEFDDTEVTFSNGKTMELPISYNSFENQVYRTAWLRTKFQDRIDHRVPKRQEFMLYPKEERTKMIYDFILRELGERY

[4] = molecular target: T1, ComK; test: smFRET; Hill n 3.44 ± 0.27; unit inferred; EMSA: 20 mM Tris pH 7.0, 50 mM L-Arg, 5 mM MgCl2, 150 mM KCl, 10 mM DTT, 0.001% Tween-20, 25 nM DNA, 20 min; smFRET: room temperature, 50 mM L-Arg, 20 mM DTT; conditions: protein: recombinant; tags: N-terminal His6-HRV3C tag removed; GPG remains at the N-terminus; chain copies: 4; label: AlexaFluor 488 / AlexaFluor 594; blunt
[5] = molecular target: T1, ComK; test: smFRET; Hill n 2.97 ± 0.28; unit inferred; EMSA: 20 mM Tris pH 7.0, 50 mM L-Arg, 5 mM MgCl2, 150 mM KCl, 10 mM DTT, 0.001% Tween-20, 25 nM DNA, 20 min; smFRET: room temperature, 50 mM L-Arg, 20 mM DTT; conditions: protein: recombinant; tags: N-terminal His6-HRV3C tag removed; GPG remains at the N-terminus; chain copies: 4; label: AlexaFluor 488 / AlexaFluor 594; blunt
[6] = molecular target: T1, ComK; test: smFRET; Hill n 2.93 ± 0.28; unit inferred; EMSA: 20 mM Tris pH 7.0, 50 mM L-Arg, 5 mM MgCl2, 150 mM KCl, 10 mM DTT, 0.001% Tween-20, 25 nM DNA, 20 min; smFRET: room temperature, 50 mM L-Arg, 20 mM DTT; conditions: protein: recombinant; tags: N-terminal His6-HRV3C tag removed; GPG remains at the N-terminus; chain copies: 4; label: AlexaFluor 488 / AlexaFluor 594; blunt ends, internal mismatches in spacer
[7] = molecular target: T1, ComK; test: smFRET; Hill n 3.05 ± 0.08; unit inferred; EMSA: 20 mM Tris pH 7.0, 50 mM L-Arg, 5 mM MgCl2, 150 mM KCl, 10 mM DTT, 0.001% Tween-20, 25 nM DNA, 20 min; smFRET: room temperature, 50 mM L-Arg, 20 mM DTT; conditions: protein: recombinant; tags: N-terminal His6-HRV3C tag removed; GPG remains at the N-terminus; chain copies: 4; label: AlexaFluor 488 / AlexaFluor 594; blunt
[8] = molecular target: T1, ComK; test: cryo-EM; 50 mM L-Arg; two ComK per box; EMSA: 20 mM Tris pH 7.0, 50 mM L-Arg, 5 mM MgCl2, 150 mM KCl, 10 mM DTT, 0.001% Tween-20, 25 nM DNA, 20 min; smFRET: room temperature, 50 mM L-Arg, 20 mM DTT; conditions: protein: recombinant; tags: N-terminal His6-HRV3C tag removed; GPG remains at the N-terminus; chain copies: 4; blunt
[9] = molecular target: T1, ComK; test: smFRET; Hill n 4.34 ± 0.32; unit inferred; EMSA: 20 mM Tris pH 7.0, 50 mM L-Arg, 5 mM MgCl2, 150 mM KCl, 10 mM DTT, 0.001% Tween-20, 25 nM DNA, 20 min; smFRET: room temperature, 50 mM L-Arg, 20 mM DTT; conditions: protein: recombinant; tags: N-terminal His6-HRV3C tag removed; GPG remains at the N-terminus; chain copies: 4; label: AlexaFluor 488 / AlexaFluor 594; blunt
[10] = molecular target: T1, ComK; test: smFRET; Hill n 2.28 ± 0.16; unit inferred; EMSA: 20 mM Tris pH 7.0, 50 mM L-Arg, 5 mM MgCl2, 150 mM KCl, 10 mM DTT, 0.001% Tween-20, 25 nM DNA, 20 min; smFRET: room temperature, 50 mM L-Arg, 20 mM DTT; conditions: protein: recombinant; tags: N-terminal His6-HRV3C tag removed; GPG remains at the N-terminus; chain copies: 4; label: AlexaFluor 488 / AlexaFluor 594; blunt

Molecule: comG: isolated box 2 labelled
- K half ([1]; Hill n 1.59 ± 0.09, unit inferred): 48 nM

Molecule: comG: isolated box 1 labelled
- K half ([1]; Hill n 1.76 ± 0.02, unit inferred): 73 nM

B1: comG: box 1 labelled (dsDNA)
DNA 1: CAGTTGAAAGTCTTTTTTCTTGCCAGAAAGAATTGGTTTTTCAGCATATAACATCTCACAAAATCACGTTTTCCCTGTTTGATTACCTTTTCT
DNA 2: AGAAAAGGTAATCAAACAGGGAAAACGTGATTTTGTGAGATGTTATATGCTGAAAAACCAATTCTTTCTGGCAAGAAAAAAGACTTTCAACTG
modifications: amino-C6-dT/dA at dye sites
- apparent K (half saturation) [2]: 15 ± 1 nM

B2: comG: box 2 labelled (dsDNA)
DNA 1: CAGTTGAAAGTCTTTTTTCTTGCCAGAAAGAATTGGTTTTTCAGCATATAACATCTCACAAAATCACGTTTTCCCTGTTTGATTACCTTTTCT
DNA 2: AGAAAAGGTAATCAAACAGGGAAAACGTGATTTTGTGAGATGTTATATGCTGAAAAACCAATTCTTTCTGGCAAGAAAAAAGACTTTCAACTG
modifications: amino-C6-dT/dA at dye sites
- binding result [3]: no binding
- apparent K (half saturation) [4]: 16 ± 1 nM

B3: comG GC-55%: box 1 labelled (dsDNA)
DNA 1: CAGTTGAAAGTCTTTTTTCTTGCCAGAAAGAATTGGTTTTTCAGCAGCTAACAGCTCACAAAATCACGTTTTCCCTGTTTGATTACCTTTTCT
DNA 2: AGAAAAGGTAATCAAACAGGGAAAACGTGATTTTGTGAGCTGTTAGCTGCTGAAAAACCAATTCTTTCTGGCAAGAAAAAAGACTTTCAACTG
modifications: amino-C6-dT/dA at dye sites
- apparent K (half saturation) [5]: 16 ± 1 nM

B4: comG Mismatch: box 1 labelled (dsDNA)
DNA 1: CAGTTGAAAGTCTTTTTTCTTGCCAGAAAGAATTGGTTTTTCAGCAATATACATCTCACAAAATCACGTTTTCCCTGTTTGATTACCTTTTCT
DNA 2: AGAAAAGGTAATCAAACAGGGAAAACGTGATTTTGTGAGATGTTATATGCTGAAAAACCAATTCTTTCTGGCAAGAAAAAAGACTTTCAACTG
modifications: amino-C6-dT/dA at dye sites
- apparent K (half saturation) [6]: 14 ± 1 nM

B5: comG GC-72%: box 1 labelled (dsDNA)
DNA 1: CAGTTGAAAGTCTTTTTTCTTGCCAGAAAGAATTGGTTTTTCGGCCGCTAACGGCTCACAAAATCACGTTTTCCCTGTTTGATTACCTTTTCT
DNA 2: AGAAAAGGTAATCAAACAGGGAAAACGTGATTTTGTGAGCCGTTAGCGGCCGAAAAACCAATTCTTTCTGGCAAGAAAAAAGACTTTCAACTG
modifications: amino-C6-dT/dA at dye sites
- apparent K (half saturation) [7]: 17 ± 1 nM

B6: comG unlabelled (dsDNA)
DNA 1: CAGTTGAAAGTCTTTTTTCTTGCCAGAAAGAATTGGTTTTTCAGCATATAACATCTCACAAAATCACGTTTTCCCTGTTTGATTACCTTTTCT
DNA 2: AGAAAAGGTAATCAAACAGGGAAAACGTGATTTTGTGAGATGTTATATGCTGAAAAACCAATTCTTTCTGGCAAGAAAAAAGACTTTCAACTG
- binding result [8]: binds

B7: addAB unlabelled (dsDNA)
DNA 1: GATGTGCGGAGATAATCAGCTTTTTATATGTGAAAAGGCCGTTTTTACCAATAGATC
DNA 2: GATCTATTGGTAAAAACGGCCTTTTCACATATAAAAAGCTGATTATCTCCGCACATC
- binding result [8]: binds

B8: addAB1: box 1 labelled (dsDNA)
DNA 1: GATGTGCGGAGATAATCAGCTTTTTATATGTGAAAAGGCCGTTTTTACCAATAGATC
DNA 2: GATCTATTGGTAAAAACGGCCTTTTCACATATAAAAAGCTGATTATCTCCGCACATC
modifications: amino-C6-dT/dA at dye sites
- apparent K (half saturation) [9]: 25 ± 6 nM

B9: comK: box 1 labelled (dsDNA)
DNA 1: CTTATGAAAGTAAAATCGGTTTATTACTAGTCATTTAGTACCATTAAATATCATTAAAAGATGATTTTATCTTAAATG
DNA 2: CATTTAAGATAAAATCATCTTTTAATGATATTTAATGGTACTAAATGACTAGTAATAAACCGATTTTACTTTCATAAG
modifications: amino-C6-dT/dA at dye sites
- apparent K (half saturation) [10]: 21 ± 2 nM
